Measured values: PMC12860359 (2025)
Residue numbers refer to the chain shown, from its start.

T1: MBP-HA Rap1B WT (human, UniProt P61224-1 1-184)
T1 chain: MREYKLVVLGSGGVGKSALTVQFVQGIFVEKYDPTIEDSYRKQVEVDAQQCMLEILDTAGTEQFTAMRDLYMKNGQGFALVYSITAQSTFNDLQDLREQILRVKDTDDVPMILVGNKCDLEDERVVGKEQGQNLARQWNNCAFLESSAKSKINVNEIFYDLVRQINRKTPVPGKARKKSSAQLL

B1: VHH-hFcS A47 (Fc fusion)
chain: EVQLQASGGGFVQPGGSLRLSCAASGFTSKNTIMGWFRQAPGKEREFVSAISSAPGYWEYYADSVKGRFTISRDNSKNTVYLQMNSLRAEDTATYYCAAPINQAPGRPIRSDQYWGQGTQVTVSS
B2: VHH-hFcS B14 (Fc fusion)
chain: B1 chain with F37Y, F47L
B3: VHH-hFcS B89 (Fc fusion)
chain: B1 chain with S111W

Key:
MBP-HA Rap1B WT [1] = target: T1, MBP-HA Rap1B WT; experiment: BLI; GDP-bound Rap1B
MBP-HA Rap1B WT [2] = target: T1, MBP-HA Rap1B WT; experiment: BLI; GTPγS-bound Rap1B
MBP-HA Rap1B WT [3] = target: T1, MBP-HA Rap1B WT; experiment: BLI; GTPγS-bound Rap1B

Row | Binder | Kd (MBP-HA Rap1B WT [1]) | koff (MBP-HA Rap1B WT [2]) | Kd (MBP-HA Rap1B WT [3])
1 | B1 | 722 nM | 0.000574 s⁻¹ | –
2 | B2 | 295 nM | 0.00104 s⁻¹ | 25.8 nM
3 | B3 | 20.2 nM | – | –
